The results in this text go back to PMC11575451 (The Journal of Cell Biology, 2024).

The target in the assay is T1, FLAG-HA-RTN3L (human, UniProt O95197 1-1032).
T1 sequence (looked up): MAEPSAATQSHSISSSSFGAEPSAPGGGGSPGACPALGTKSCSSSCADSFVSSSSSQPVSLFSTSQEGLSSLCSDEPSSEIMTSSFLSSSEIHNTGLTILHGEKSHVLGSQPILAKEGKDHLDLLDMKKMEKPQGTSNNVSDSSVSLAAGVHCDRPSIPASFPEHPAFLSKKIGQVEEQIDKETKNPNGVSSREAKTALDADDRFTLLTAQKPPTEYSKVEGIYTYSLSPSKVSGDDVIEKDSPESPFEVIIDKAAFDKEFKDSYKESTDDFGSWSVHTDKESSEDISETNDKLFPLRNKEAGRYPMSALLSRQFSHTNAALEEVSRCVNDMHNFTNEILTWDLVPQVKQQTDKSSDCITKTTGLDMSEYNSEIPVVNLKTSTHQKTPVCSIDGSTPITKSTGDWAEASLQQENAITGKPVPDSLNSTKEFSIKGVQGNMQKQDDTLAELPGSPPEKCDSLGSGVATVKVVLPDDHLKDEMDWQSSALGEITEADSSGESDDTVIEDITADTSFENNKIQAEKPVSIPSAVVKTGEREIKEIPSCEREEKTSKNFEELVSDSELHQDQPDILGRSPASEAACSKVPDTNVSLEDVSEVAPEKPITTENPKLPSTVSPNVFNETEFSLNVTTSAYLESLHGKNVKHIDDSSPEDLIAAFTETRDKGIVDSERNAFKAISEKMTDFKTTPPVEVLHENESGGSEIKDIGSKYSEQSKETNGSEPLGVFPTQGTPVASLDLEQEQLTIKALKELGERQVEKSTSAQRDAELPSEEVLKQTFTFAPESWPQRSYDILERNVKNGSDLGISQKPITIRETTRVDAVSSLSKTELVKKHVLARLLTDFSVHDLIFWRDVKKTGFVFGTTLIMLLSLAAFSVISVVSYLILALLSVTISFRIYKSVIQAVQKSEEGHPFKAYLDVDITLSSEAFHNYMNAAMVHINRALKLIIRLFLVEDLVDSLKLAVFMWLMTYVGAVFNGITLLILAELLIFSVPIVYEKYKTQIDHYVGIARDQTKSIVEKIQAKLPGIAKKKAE
In words: co-IP.

B1: PEF1 (natural protein, human (endogenous in U2OS), UniProt Q9UBV8 1-284, looked up)
chain: MASYPYRQGCPGAAGQAPGAPPGSYYPGPPNSGGQYGSGLPPGGGYGGPAPGGPYGPPAGGGPYGHPNPGMFPSGTPGGPYGGAAPGGPYGQPPPSSYGAQQPGLYGQGGAPPNVDPEAYSWFQSVDSDHSGYISMKELKQALVNCNWSSFNDETCLMMINMFDKTKSGRIDVYGFSALWKFIQQWKNLFQQYDRDRSGSISYTELQQALSQMGYNLSPQFTQLLVSRYCPRSANPAMQLDRFIQVCTQLQVLTEAFREKDTAVQGNIRLSFEDFVTMTASRML
Regarding B1, the “PEF1 precipitated in the tagged sample relative to the untagged control” value came out at 4.8 x.
